Experiment [1] has as its target T1, pTag1 peptide (PDRVRAVSHWSS), biotinylated (reading uncertain).
T1 construct: Immobilised on Streptavidin biosensors
T1 peptide: {Biotin-ethylene glycol linker}-PDRVRAVSHWSS
As to the kind of experiment: biolayer interferometry, biotinylated peptide on Streptavidin biosensor; reference original BC2T (SEQ ID NO:4). The protocol:
Biolayer interferometry (BLI)-based affinity measurements were used to assess two improved variations of the original BC2T sequence (a: […], pTag1 SEQ ID NO:33; b: […], pTag2 SEQ ID NO:34) in comparison with the original BC2T sequence (c: BC2T SEQ ID NO:4).
The shaking rate was 1200 rpm. As a reference, each peptide was also incubated with BLItz buffer only according to the protocol above. […] The sensor was regenerated by sequential dips into 10 mM glycine pH 2.0 and BLItz buffer (repeated three times). Raw data were analysed using the software BLItz Pro (fortéBio) and a 1:1 binding model.
A general note: BLI is a label-free optical method that tracks binding on a fibre tip over time.

The target in the next experiment is T2, EPDRKAAVSHWQQQS
T2 construct: unphosphorylated counterpart of 1.m32; also called β-catenin peptide aa 15-29 without phosphorylated Ser23; phos Ser23 -
T2 peptide: EPDRKAAVSHWQQQS
As to the kind of experiment: peptide aa 15-29 on microspheres, biotinylated BC2-Nb, streptavidin-PE. The text has this: (§1) As negative controls, microspheres comprising Ovalbumin and the Myc-peptide ([…]) covalently coupled to OVA-microspheres were used. […] Evaluation of the PE-signals were done in a Flexmap 3D (Luminex).

A further experiment addresses T3, β-catenin peptide 65-79 (human, UniProt P35222).
T3 construct: synthetic 15-mer; additional N-terminal cysteine for coupling; also called Start 65 End 79
T3 peptide (looked up): EWEQGFSQSFTQEQV
As to the kind of experiment: pepscan: 15-mer peptide on OVA-microspheres, biotinylated BC2-Nb, streptavidin-PE.
Description: as §1

A further experiment addresses T4, β-catenin peptide 33-47 (human, UniProt P35222).
T4 construct: synthetic 15-mer; additional N-terminal cysteine for coupling; also called Start 33 End 47
T4 peptide (looked up): SGIHSGATTTAPSLS
The description is as above.
Description: as §1

Another experiment has as its target T5, β-catenin peptide 97-111 (human, UniProt P35222).
T5 construct: synthetic 15-mer; additional N-terminal cysteine for coupling; also called Start 97 End 111
T5 peptide (looked up): AMFPETLDEGMQIPS
Described as above.
Description: as §1

In the next experiment the target is T6, β-catenin peptide 85-99 (human, UniProt P35222).
T6 construct: synthetic 15-mer; additional N-terminal cysteine for coupling; also called Start 85 End 99
T6 peptide (looked up): QYAMTRAQRVRAAMF
Described as above.
Description: as §1

For experiment [2], the target named is T7, β-catenin peptide 105-119 (human, UniProt P35222).
T7 construct: synthetic 15-mer; additional N-terminal cysteine for coupling
T7 peptide (looked up): EGMQIPSTQFDAAHP
The experiment is described as above.
Description: as §1

For another experiment, the target named is T8, β-catenin peptide 45-59 (human, UniProt P35222).
T8 construct: synthetic 15-mer; additional N-terminal cysteine for coupling; also called Start 45 End 59
T8 peptide (looked up): SLSGKGNPEEEDVDT
The description is as above.
Description: as §1

Another experiment has as its target T9, β-catenin peptide 93-107 (human, UniProt P35222).
T9 construct: synthetic 15-mer; additional N-terminal cysteine for coupling; also called Start 93 End 107
T9 peptide (looked up): RVRAAMFPETLDEGM
Described as above.
Description: as §1

The next experiment has as its target T10, β-catenin peptide 41-55 (human, UniProt P35222).
T10 construct: synthetic 15-mer; additional N-terminal cysteine for coupling; also called Start 41 End 55
T10 peptide (looked up): TTAPSLSGKGNPEEE
The experiment is described as above.
Description: as §1

Experiment [3] has as its target T11, BC2T W10Q peptide (BC2TW10X library) (human).
T11 construct: also called W10 permutant Q
T11 peptide: Ac-PDRKAAVSHQQQ-NH2
As to the kind of experiment: BC2TW10X library pulldown with immobilized Nb, LC-MS of the supernatant. Here is the method:
(§2) To investigate the binding specificity of the BC2T and derived mutants peptide libraries for each amino acid position of the sequence […] (SEQ ID NO:4) were synthesized with acetyl and amide groups located at the N-termini or C-termini respectively (Intavis). […] Incubations were performed in 300 μl PBS/0.01% CHAPS for 1 h on a HulaMixer (Life Technologies). Subsequent to a centrifugation step 10 μl supernatant were analyzed in a LC-MS procedure. Peptides were separated using an UltiMate3000 RSLCnano System (Thermo Scientific), composed of a C18 PepMap100μ-Precolumn (300 μm×5 mm; particle size: 5 μm; pore size: 100 Å—Thermo Scientific) and a C18 analytical column (Acclaim Rapid Separation LC (RSLC) Column: 150 mm×5 mm; particle size: 2.2 μm; pore size: 100 Å—Thermo Scientific). A step gradient was applied starting at 8% and ending after 20 min at 30% eluent B (80% acetonitrile, 20% H₂O, 0.1% formic acid). Peptides were analyzed using a FULL-MS-strategy detected by a Q Exactive Plus mass spectrometer (Thermo Scientific). As maximal injection time 100 ms was chosen while setting the AGC target to 3E6. The resolution was set to 70.000. Half-maximal signal areas were referenced to control precipitation approaches using a GFP-specific nanobody immobilized on agarose beads. All experiments were done in triplicates.

Experiment [4] addresses T12, BC2T W10H peptide (BC2TW10X library) (human).
T12 construct: also called W10 permutant H
T12 peptide: Ac-PDRKAAVSHHQQ-NH2
Described as above. Here is the method:
as §2

In experiment [5] the target is T13, BC2T W10L peptide (BC2TW10X library) (human).
T13 construct: Isobaric with the isoleucine peptide; also called W10 permutant L
T13 peptide: Ac-PDRKAAVSHLQQ-NH2
The description is as above. Here is the method: as §2

Experiment [6] deals with T14, BC2T W10C peptide (BC2TW10X library) (human, also: Abu described as gamma-amino butyric acid).
T14 construct: also called W10 permutant C(Abu)
T14 peptide: Ac-PDRKAAVSH[GABA]QQ-NH2
The experiment is described as above. The protocol:
as §2

In experiment [7] the target is T15, BC2T W10P peptide (BC2TW10X library) (human).
T15 construct: also called W10 permutant P
T15 peptide: Ac-PDRKAAVSHPQQ-NH2
The description is as above. Here is the method:
as §2

Experiment [8] has as its target T16, BC2T W10V peptide (BC2TW10X library) (human).
T16 construct: also called W10 permutant V
T16 peptide: Ac-PDRKAAVSHVQQ-NH2
Described as above. The protocol:
as §2

Square brackets hold non-standard residues; d marks the D form. Ends that are not written are not given here. * marks the point of attachment. Biotin = O=C1N[C@H]2[C@H](CS[C@H]2CCCCC(=O)*)N1; ethylene glycol linker = not defined here; GABA = NCCCC(=O)O

B1: BC2 nanobody (VHH)
VHH: QVQLVESGGGLVQPGGSLTLSCTASGFTLDHYDIGWFRQAPGKEREGVSCINNSDDDTYYADSVKGRFTIFMDNAKDTVYLQMNSLKPEDTAIYYCAEARGCKRGRYEYDFWGQGTQVTVSS
notes: Alpaca VHH, 122 aa; also called BC2-Nb; BC2 nanotrap (BC2-Nb immobilized on agarose/Sepharose beads); not shown: C-terminal 6xHis-tag added by the pHEN6 vector
As to B1, the “fold slower koff than for original BC2T” value in experiment [1] is 7 fold. Further, the binding result in the experiment with EPDRKAAVSHWQQQS was “binds”; with β-catenin peptide 65-79, “no binding (tested: 1 µg/ml BC2-Nb)”; with β-catenin peptide 33-47, “no binding (tested: 1 µg/ml BC2-Nb)”; with β-catenin peptide 97-111, “no binding (tested: 1 µg/ml BC2-Nb)”; with β-catenin peptide 85-99, “no binding (tested: 1 µg/ml BC2-Nb)”; in experiment [2], “no binding (tested: 1 µg/ml BC2-Nb)”. Moreover, the binding result in the experiment with β-catenin peptide 45-59 is on record as “no binding (tested: 1 µg/ml BC2-Nb)”; with β-catenin peptide 93-107, “no binding (tested: 1 µg/ml BC2-Nb)”; in the experiment with β-catenin peptide 41-55, “no binding (tested: 1 µg/ml BC2-Nb)”; in [3], “no binding”; in experiment [4], “no binding”; in experiment [5] it was “no binding”. In addition, the binding result in [6], in [7] and in experiment [8] was “no binding” in each case.

(Values after patent publication US20170137467A1 (CHROMOTEK, published 2017).)
